Data reported in publication PMC11088703, “Structural basis of human NOX5 activation” (Nature Communications, 2024).

Tests used:
[1] = target: the molecule itself; assay: cryo-EM structure; purified NOX5 in 0.05% digitonin; pre-reaction (5 mM EGTA + 1 mM NADPH), intermediate (1 mM CaCl2 + 1 mM NADPH) and post-reaction (1 mM CaCl2 + 1.2 mM NADP+ + 60 uM FAD) states; C2 symmetry imposed
[2] = target: the molecule itself; assay: SEC; Trp fluorescence-based gel filtration; Superose 6 Increase; 20 mM Tris pH 8.0, 200 mM NaCl, 0.004% LMNG/CHS; excitation 280 nm, emission 350 nm

Row | Protein | stoichiometry N [1] | binding result [2]
1 | full-length human NADPH oxidase 5 (NOX5), NOX5-β variant (enzyme, UniProt Q96PH1-4 1-719, looked up, NADPH oxidase 5, human, NOX5-β variant (called v2 isoform in the methods); full length; a Zn2+ is modelled between the two CXXC motifs at the dimer interface; also called NOX5 v2 isoform; hNOX5; source: HEK293F, BacMam virus, purified (GFP-nanobody beads, preScission cleavage, Superose 6 SEC in digitonin); not shown: GFP, N-terminal, cleaved) MSAEEDARWLRWVTQQFKTIAGEDGEISLQEFKAALHVKESFFAERFFALFDSDRSGTITLQELQEALTLLIHGSPMDKLKFLFQVYDIDGSGSIDPDELRTVLQSCLRESAISLPDEKLDQLTLALFESADADGNGAITFEELRDELQRFPGVMENLTISAAHWLTAPAPRPRPRRPRQLTRAYWHNHRSQLFCLATYAGLHVLLFGLAASAHRDLGASVMVAKGCGQCLNFDCSFIAVLMLRRCLTWLRATWLAQVLPLDQNIQFHQLMGYVVVGLSLVHTVAHTVNFVLQAQAEASPFQFWELLLTTRPGIGWVHGSASPTGVALLLLLLLMFICSSSCIRRSGHFEVFYWTHLSYLLVWLLLIFHGPNFWKWLLVPGILFFLEKAIGLAVSRMAAVCIMEVNLLPSKVTHLLIKRPPFFHYRPGDYLYLNIPTIARYEWHPFTISSAPEQKDTIWLHIRSQGQWTNRLYESFKASDPLGRGSKRLSRSVTMRKSQRSSKGSEILLEKHKFCNIKCYIDGPYGTPTRRIFASEHAVLIGAGIGITPFASILQSIMYRHQKRKHTCPSCQHSWIEGVQDNMKLHKVDFIWINRDQRSFEWFVSLLTKLEMDQAEEAQYGRFLELHMYMTSALGKNDMKAIGLQMALDLLANKEKKDSITGLQTRTQPGRPDWSKVFQKVAAEKKGKVQVFFCGSPALAKVLKGHCEKFGFRFFQENF | 2 | 
2 | NOX5 R426A (enzyme, human, UniProt Q96PH1-4 1-719, looked up, NADPH oxidase 5, human, NOX5-β variant (v2 isoform in the methods; UniProt Q96PH1-4), point mutant; source: HEK293F, purified with the same protocol as NOX5 wild type (GFP-nanobody beads, preScission cleavage); not shown: GFP, N-terminal, cleaved) MSAEEDARWLRWVTQQFKTIAGEDGEISLQEFKAALHVKESFFAERFFALFDSDRSGTITLQELQEALTLLIHGSPMDKLKFLFQVYDIDGSGSIDPDELRTVLQSCLRESAISLPDEKLDQLTLALFESADADGNGAITFEELRDELQRFPGVMENLTISAAHWLTAPAPRPRPRRPRQLTRAYWHNHRSQLFCLATYAGLHVLLFGLAASAHRDLGASVMVAKGCGQCLNFDCSFIAVLMLRRCLTWLRATWLAQVLPLDQNIQFHQLMGYVVVGLSLVHTVAHTVNFVLQAQAEASPFQFWELLLTTRPGIGWVHGSASPTGVALLLLLLLMFICSSSCIRRSGHFEVFYWTHLSYLLVWLLLIFHGPNFWKWLLVPGILFFLEKAIGLAVSRMAAVCIMEVNLLPSKVTHLLIKRPPFFHYAPGDYLYLNIPTIARYEWHPFTISSAPEQKDTIWLHIRSQGQWTNRLYESFKASDPLGRGSKRLSRSVTMRKSQRSSKGSEILLEKHKFCNIKCYIDGPYGTPTRRIFASEHAVLIGAGIGITPFASILQSIMYRHQKRKHTCPSCQHSWIEGVQDNMKLHKVDFIWINRDQRSFEWFVSLLTKLEMDQAEEAQYGRFLELHMYMTSALGKNDMKAIGLQMALDLLANKEKKDSITGLQTRTQPGRPDWSKVFQKVAAEKKGKVQVFFCGSPALAKVLKGHCEKFGFRFFQENF |  | binds
3 | NOX5 R530A (enzyme, human, UniProt Q96PH1-4 1-719, looked up, NADPH oxidase 5, human, NOX5-β variant (v2 isoform in the methods; UniProt Q96PH1-4), point mutant; source: HEK293F, purified with the same protocol as NOX5 wild type (GFP-nanobody beads, preScission cleavage); not shown: GFP, N-terminal, cleaved) MSAEEDARWLRWVTQQFKTIAGEDGEISLQEFKAALHVKESFFAERFFALFDSDRSGTITLQELQEALTLLIHGSPMDKLKFLFQVYDIDGSGSIDPDELRTVLQSCLRESAISLPDEKLDQLTLALFESADADGNGAITFEELRDELQRFPGVMENLTISAAHWLTAPAPRPRPRRPRQLTRAYWHNHRSQLFCLATYAGLHVLLFGLAASAHRDLGASVMVAKGCGQCLNFDCSFIAVLMLRRCLTWLRATWLAQVLPLDQNIQFHQLMGYVVVGLSLVHTVAHTVNFVLQAQAEASPFQFWELLLTTRPGIGWVHGSASPTGVALLLLLLLMFICSSSCIRRSGHFEVFYWTHLSYLLVWLLLIFHGPNFWKWLLVPGILFFLEKAIGLAVSRMAAVCIMEVNLLPSKVTHLLIKRPPFFHYRPGDYLYLNIPTIARYEWHPFTISSAPEQKDTIWLHIRSQGQWTNRLYESFKASDPLGRGSKRLSRSVTMRKSQRSSKGSEILLEKHKFCNIKCYIDGPYGTPTARIFASEHAVLIGAGIGITPFASILQSIMYRHQKRKHTCPSCQHSWIEGVQDNMKLHKVDFIWINRDQRSFEWFVSLLTKLEMDQAEEAQYGRFLELHMYMTSALGKNDMKAIGLQMALDLLANKEKKDSITGLQTRTQPGRPDWSKVFQKVAAEKKGKVQVFFCGSPALAKVLKGHCEKFGFRFFQENF |  | binds
4 | NOX5 R531A (enzyme, human, UniProt Q96PH1-4 1-719, looked up, NADPH oxidase 5, human, NOX5-β variant (v2 isoform in the methods; UniProt Q96PH1-4), point mutant; source: HEK293F, purified with the same protocol as NOX5 wild type (GFP-nanobody beads, preScission cleavage); not shown: GFP, N-terminal, cleaved) MSAEEDARWLRWVTQQFKTIAGEDGEISLQEFKAALHVKESFFAERFFALFDSDRSGTITLQELQEALTLLIHGSPMDKLKFLFQVYDIDGSGSIDPDELRTVLQSCLRESAISLPDEKLDQLTLALFESADADGNGAITFEELRDELQRFPGVMENLTISAAHWLTAPAPRPRPRRPRQLTRAYWHNHRSQLFCLATYAGLHVLLFGLAASAHRDLGASVMVAKGCGQCLNFDCSFIAVLMLRRCLTWLRATWLAQVLPLDQNIQFHQLMGYVVVGLSLVHTVAHTVNFVLQAQAEASPFQFWELLLTTRPGIGWVHGSASPTGVALLLLLLLMFICSSSCIRRSGHFEVFYWTHLSYLLVWLLLIFHGPNFWKWLLVPGILFFLEKAIGLAVSRMAAVCIMEVNLLPSKVTHLLIKRPPFFHYRPGDYLYLNIPTIARYEWHPFTISSAPEQKDTIWLHIRSQGQWTNRLYESFKASDPLGRGSKRLSRSVTMRKSQRSSKGSEILLEKHKFCNIKCYIDGPYGTPTRAIFASEHAVLIGAGIGITPFASILQSIMYRHQKRKHTCPSCQHSWIEGVQDNMKLHKVDFIWINRDQRSFEWFVSLLTKLEMDQAEEAQYGRFLELHMYMTSALGKNDMKAIGLQMALDLLANKEKKDSITGLQTRTQPGRPDWSKVFQKVAAEKKGKVQVFFCGSPALAKVLKGHCEKFGFRFFQENF |  | binds
